Changes are numbered by the printed parent chain.
How the values were obtained:
Experiment in all cases: holdup assay
Design in all cases: key: below the threshold = too weak to quantify, mostly under pKd 3.1 to 4
PARD3B_1, Q8TEW8 = biological target: T1, PARD3B_1, Q8TEW8
T1 sequence (Q8TEW8 196-299, limits assumed, looked up): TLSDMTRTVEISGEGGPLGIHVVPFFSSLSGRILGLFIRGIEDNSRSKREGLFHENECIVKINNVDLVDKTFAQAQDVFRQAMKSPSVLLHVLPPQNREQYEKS

GRASP, Q7Z6J2 = biological target: GRASP, Q7Z6J2
FRMPD4, Q14CM0 = biological target: FRMPD4, Q14CM0
Chain of FRMPD4, Q14CM0 (Q14CM0 67-160): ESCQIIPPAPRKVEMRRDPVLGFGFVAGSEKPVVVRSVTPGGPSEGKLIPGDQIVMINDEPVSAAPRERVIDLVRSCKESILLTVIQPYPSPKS

ARHGAP21, Q5T5U3 = biological target: T2, ARHGAP21, Q5T5U3
T2 sequence (Q5T5U3 45-169, limits assumed, looked up): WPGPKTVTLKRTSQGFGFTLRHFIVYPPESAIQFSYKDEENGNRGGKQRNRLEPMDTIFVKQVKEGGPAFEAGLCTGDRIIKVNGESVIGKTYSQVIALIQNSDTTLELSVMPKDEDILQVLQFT

MAGI3_2, Q5TCQ9 = biological target: MAGI3_2, Q5TCQ9
Chain of MAGI3_2, Q5TCQ9 (Q5TCQ9 398-503): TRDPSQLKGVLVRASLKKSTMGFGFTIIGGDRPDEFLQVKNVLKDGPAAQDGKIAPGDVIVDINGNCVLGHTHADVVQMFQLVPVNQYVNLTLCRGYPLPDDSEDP

MPDZ_5, O75970 = biological target: T3, MPDZ_5, O75970
T3 sequence (O75970 695-796, limits assumed, looked up): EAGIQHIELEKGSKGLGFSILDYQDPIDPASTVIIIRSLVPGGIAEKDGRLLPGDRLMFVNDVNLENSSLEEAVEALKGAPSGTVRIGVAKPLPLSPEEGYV

DLG3_3, Q92796 = biological target: T4, DLG3_3, Q92796
T4 sequence (Q92796 374-475, limits assumed, looked up): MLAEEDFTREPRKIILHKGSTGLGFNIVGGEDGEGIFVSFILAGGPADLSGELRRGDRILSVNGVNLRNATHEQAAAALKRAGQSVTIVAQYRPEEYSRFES

IL16_3, Q14005 = biological target: IL16_3, Q14005
Chain of IL16_3, Q14005 (Q14005 1107-1207): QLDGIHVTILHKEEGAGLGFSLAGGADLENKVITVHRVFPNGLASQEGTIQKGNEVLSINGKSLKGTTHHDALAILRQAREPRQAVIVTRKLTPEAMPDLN

PCLO, Q9Y6V0 = biological target: T5, PCLO, Q9Y6V0
T5 sequence (Q9Y6V0 4491-4600, limits assumed, looked up): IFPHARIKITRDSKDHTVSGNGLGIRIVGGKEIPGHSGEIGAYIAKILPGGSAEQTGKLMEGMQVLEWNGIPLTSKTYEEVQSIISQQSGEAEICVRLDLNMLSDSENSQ

LIN7A, O14910 = biological target: T6, LIN7A, O14910
T6 sequence (O14910 103-200, limits assumed, looked up): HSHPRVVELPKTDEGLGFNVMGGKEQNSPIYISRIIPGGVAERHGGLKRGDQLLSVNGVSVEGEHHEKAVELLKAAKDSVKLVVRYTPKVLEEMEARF

LDB3, O75112 = biological target: LDB3, O75112
Chain of LDB3, O75112 (O75112 1-94): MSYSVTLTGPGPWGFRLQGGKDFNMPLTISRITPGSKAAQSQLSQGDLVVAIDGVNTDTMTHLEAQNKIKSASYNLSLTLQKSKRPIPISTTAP

DLG1_2, Q12959 = biological target: DLG1_2, Q12959
GRIP2_5, Q9C0E4 = biological target: GRIP2_5, Q9C0E4
Chain of GRIP2_5, Q9C0E4 (Q9C0E4 544-642): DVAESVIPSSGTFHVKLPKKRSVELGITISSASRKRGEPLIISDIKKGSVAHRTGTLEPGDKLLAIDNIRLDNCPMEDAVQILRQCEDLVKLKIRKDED

PICK1, Q9NRD5 = biological target: PICK1, Q9NRD5
Chain of PICK1, Q9NRD5 (Q9NRD5 17-115): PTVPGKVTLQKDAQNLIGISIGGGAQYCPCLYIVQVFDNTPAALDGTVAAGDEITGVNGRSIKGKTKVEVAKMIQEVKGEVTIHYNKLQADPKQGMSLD

SNTG2, Q9NY99 = biological target: T7, SNTG2, Q9NY99
T7 sequence (Q9NY99 68-166, limits assumed, looked up): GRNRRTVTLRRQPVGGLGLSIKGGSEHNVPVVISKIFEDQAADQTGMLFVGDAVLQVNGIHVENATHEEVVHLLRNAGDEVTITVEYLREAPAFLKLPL

DLG1_3, Q12959 = biological target: DLG1_3, Q12959
DLG2_2, Q15700 = biological target: DLG2_2, Q15700
Chain of DLG2_2, Q15700 (Q15700 189-283): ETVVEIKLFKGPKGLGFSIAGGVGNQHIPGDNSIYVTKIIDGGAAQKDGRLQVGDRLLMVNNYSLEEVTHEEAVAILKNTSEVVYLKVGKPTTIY

TX1BP3, O14907 = biological target: T8, TX1BP3, O14907
T8 sequence (O14907 10-122, limits assumed, looked up): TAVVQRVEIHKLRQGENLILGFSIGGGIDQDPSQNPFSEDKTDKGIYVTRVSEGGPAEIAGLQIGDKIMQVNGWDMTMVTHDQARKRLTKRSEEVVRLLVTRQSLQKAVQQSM

LNX1_3, Q8TBB1 = biological target: LNX1_3, Q8TBB1
Chain of LNX1_3, Q8TBB1 (Q8TBB1 500-596): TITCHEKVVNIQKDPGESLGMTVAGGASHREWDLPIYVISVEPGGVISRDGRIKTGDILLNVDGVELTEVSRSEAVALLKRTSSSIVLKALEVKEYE

GRIP2_3, Q9C0E4 = biological target: GRIP2_3, Q9C0E4
Chain of GRIP2_3, Q9C0E4 (Q9C0E4 238-339): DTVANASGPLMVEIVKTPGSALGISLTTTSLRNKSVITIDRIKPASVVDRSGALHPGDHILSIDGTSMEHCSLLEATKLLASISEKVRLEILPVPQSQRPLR

LIN7B, Q9HAP6 = biological target: T9, LIN7B, Q9HAP6
T9 sequence (Q9HAP6 88-185, limits assumed, looked up): T6 sequence (O14910 103-200, limits assumed, looked up) with S2A, V20I, I35V, E42D, H65Q, K77Q, D78G, K89R

Inadl_5, Q8NI35 = biological target: Inadl_5, Q8NI35
Chain of Inadl_5, Q8NI35 (Q8NI35 673-780): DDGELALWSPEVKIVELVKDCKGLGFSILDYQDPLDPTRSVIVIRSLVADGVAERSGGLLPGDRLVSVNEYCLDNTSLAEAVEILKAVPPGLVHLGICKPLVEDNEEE

Inadl_10, Q8NI35 = biological target: Inadl_10, Q8NI35
Chain of Inadl_10, Q8NI35 (Q8NI35 1673-1763): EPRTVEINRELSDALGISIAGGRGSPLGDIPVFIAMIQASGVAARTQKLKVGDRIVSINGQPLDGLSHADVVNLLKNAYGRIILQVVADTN

DLG1_1, Q12959 = biological target: DLG1_1, Q12959
MAST2, Q6P0Q8 = biological target: MAST2, Q6P0Q8
Chain of MAST2, Q6P0Q8 (Q6P0Q8 1099-1202): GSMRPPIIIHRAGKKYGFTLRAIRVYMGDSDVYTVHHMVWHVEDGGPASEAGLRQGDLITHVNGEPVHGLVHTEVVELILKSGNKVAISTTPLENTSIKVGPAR

TJP1_3, Q07157 = biological target: TJP1_3, Q07157
Chain of TJP1_3, Q07157 (Q07157 416-512): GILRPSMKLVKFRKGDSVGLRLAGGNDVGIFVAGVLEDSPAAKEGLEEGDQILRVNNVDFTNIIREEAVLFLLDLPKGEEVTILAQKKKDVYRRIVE

PDZD7_3, Q9H5P4 = biological target: T10, PDZD7_3, Q9H5P4
T10 sequence (Q9H5P4 857-944, limits assumed, looked up): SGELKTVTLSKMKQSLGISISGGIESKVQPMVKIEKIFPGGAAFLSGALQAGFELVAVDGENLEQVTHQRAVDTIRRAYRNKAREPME

GRIP2_7, Q9C0E4 = biological target: GRIP2_7, Q9C0E4
Chain of GRIP2_7, Q9C0E4 (Q9C0E4 934-1023): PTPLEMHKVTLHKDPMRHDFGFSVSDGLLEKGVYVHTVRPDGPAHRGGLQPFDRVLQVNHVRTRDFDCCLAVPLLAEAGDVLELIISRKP

[1] = plain residues with an end cap or a label only (N-terminal biotin on a linker: ado-ado)
[2] = plain residues with an end cap or a label only (N-terminal biotin on a linker: ttds)

Chain of GRASP, Q7Z6J2 (Q7Z6J2 96-193): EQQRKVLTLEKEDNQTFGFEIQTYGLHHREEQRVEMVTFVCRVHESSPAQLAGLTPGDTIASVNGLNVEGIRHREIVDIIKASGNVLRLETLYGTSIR

## FVHPILQSAV [PRKCA, P17252]
PARD3B_1, Q8TEW8; [1]
  pKd: below the threshold
GRASP, Q7Z6J2; [1]
  pKd: 5.13
FRMPD4, Q14CM0; [1]
  pKd: below the threshold
ARHGAP21, Q5T5U3; [1]
  pKd: 3.84
MAGI3_2, Q5TCQ9; [1]
  pKd: 4.32
MPDZ_5, O75970; [1]
  pKd: below the threshold
DLG3_3, Q92796; [1]
  pKd: 3.57
IL16_3, Q14005; [1]
  pKd: below the threshold
PCLO, Q9Y6V0; [1]
  pKd: below the threshold
LIN7A, O14910; [1]
  pKd: below the threshold
LDB3, O75112; [1]
  pKd: below the threshold
DLG1_2, Q12959; [1]
  pKd: 4.52
GRIP2_5, Q9C0E4; [1]
  pKd: below the threshold
PICK1, Q9NRD5; [1]
  pKd: below the threshold
SNTG2, Q9NY99; [1]
  pKd: 3.64
DLG1_3, Q12959; [1]
  pKd: 3.85
DLG2_2, Q15700; [1]
  pKd: 4.04
TX1BP3, O14907; [1]
  pKd: 5.09
LNX1_3, Q8TBB1; [1]
  pKd: below the threshold
GRIP2_3, Q9C0E4; [1]
  pKd: below the threshold
LIN7B, Q9HAP6; [1]
  pKd: below the threshold
Inadl_5, Q8NI35; [1]
  pKd: below the threshold
Inadl_10, Q8NI35; [1]
  pKd: below the threshold
DLG1_1, Q12959; [1]
  pKd: 3.81
MAST2, Q6P0Q8; [1]
  pKd: 5.35
TJP1_3, Q07157; [1]
  pKd: below the threshold
PDZD7_3, Q9H5P4; [1]
  pKd: 4.55
GRIP2_7, Q9C0E4; [1]
  pKd: below the threshold

## SRRPRTETQV [HPV31-E6, P17386]
PARD3B_1, Q8TEW8; [2]
  pKd: below the threshold
GRASP, Q7Z6J2; [2]
  pKd: below the threshold
FRMPD4, Q14CM0; [2]
  pKd: below the threshold
ARHGAP21, Q5T5U3; [2]
  pKd: below the threshold
MAGI3_2, Q5TCQ9; [2]
  pKd: 5.87
MPDZ_5, O75970; [2]
  pKd: below the threshold
DLG3_3, Q92796; [2]
  pKd: 5.1
IL16_3, Q14005; [2]
  pKd: below the threshold
PCLO, Q9Y6V0; [2]
  pKd: below the threshold
LIN7A, O14910; [2]
  pKd: 3.51
LDB3, O75112; [2]
  pKd: below the threshold
DLG1_2, Q12959; [2]
  pKd: 5.79
GRIP2_5, Q9C0E4; [2]
  pKd: below the threshold
PICK1, Q9NRD5; [2]
  pKd: below the threshold
SNTG2, Q9NY99; [2]
  pKd: 4.08
DLG1_3, Q12959; [2]
  pKd: 4.6
DLG2_2, Q15700; [2]
  pKd: 5.37
TX1BP3, O14907; [2]
  pKd: 4.61
LNX1_3, Q8TBB1; [2]
  pKd: below the threshold
GRIP2_3, Q9C0E4; [2]
  pKd: below the threshold
LIN7B, Q9HAP6; [2]
  pKd: 3.68
Inadl_5, Q8NI35; [2]
  pKd: below the threshold
Inadl_10, Q8NI35; [2]
  pKd: below the threshold
DLG1_1, Q12959; [2]
  pKd: 5.16
MAST2, Q6P0Q8; [2]
  pKd: 5.23
TJP1_3, Q07157; [2]
  pKd: below the threshold
PDZD7_3, Q9H5P4; [2]
  pKd: 3.71
GRIP2_7, Q9C0E4; [2]
  pKd: below the threshold
